Data reported in PMC6774396 (Frontiers in Immunology, 2019).
Substitutions are numbered along the chain they refer to.

B1: WT: wild-type human L-selectin, C-terminally tagged with GFP or RFP, expressed in THP-1 cells (protein)
chain: WTYHYSEKPMNWQRARRFCRDNYTDLVAIQNKAEIEYLEKTLPFSRSYYWIGIRKIGGIWTWVGTNKSLTEEAENWGDGEPNNKKNKEDCVEIYIKRNKDAGKWNDDACHKLKAALCYTASCQPWSCSGHGECVEIINNYTCNCDVGYYGPQCQFVIQCEPLEAPELGTMDCTHPLGNFSFSSQCAFSCSEGTNLTGIEETTCGPFGNWSSPEPTCQVIQCEPLSAPDLGIMNCSHPLASFSFTSACTFICSEGTELIGKKKTICESSGIWSNPSPICQKLDKSFSMIKEGDYNPLFIPVAVMVTAFSGLAFIIWLARRLKKGKKSKRSMNDPY
modifications: left off: eGFP (donor copy) or mCherry (acceptor copy, called RFP), C-terminal, kept
B2: SSAA: L-selectin with Ser^364 and Ser^367 both mutated to alanines (protein)
chain: B1 chain with S326A, S329A
modifications: left off: eGFP (donor copy) or mCherry (acceptor copy, called RFP), C-terminal, kept

How the values were obtained:
[1] = tested on: THP-1 cells over TNF-α-activated HUVEC; assay: L-selectin-GFP/RFP clustering in mid-TEM under flow, FLIM/FRET; assay type: cell-based, human; conditions: 15 min perfusion at 1.5 dyn/cm^2, fixed in mid-TEM; Top = non-transmigrated uropods, Base = transmigrated pseudopods; at least 45 cells, 3 experiments; no TAPI-0
Method: (A) Line scanning confocal microscopic image of THP-1 cells, stably expressing GFP, captured in mid-TEM—following 15 min of perfusion over TNF-α-activated HUVEC monolayers. […] “Top” and “Base,” respectively, represent the apical and basolateral aspect of the endothelium (x63 objective lens, Leica SP5). Scale bar = 24 μm. (B,C) THP-1 cells expressing WT, SSAA, or SSDD L-selectin-GFP/RFP were perfused over TNF-α-activated HUVEC and fixed after 15 min of perfusion. […] Lifetime images taken of at least 45 cells and analyzed over 3 independent experiments was quantified and expressed as FRET efficiency. Images representative of three independent experiments, where at least 45 cells of each group was analyzed at two optical sections, Top and Base, as indicated in the cartoon of a yellow monocyte captured in mid-TEM crossing a red endothelium. Individual GFP channel and lifetime images are provided for each cell line. The lifetime of fluorescence is expressed in a pseudocolour scale from red (low lifetime with a very high probability of interaction) to blue (high lifetime with a very low probability of interaction). Statistics: unpaired student t-test ***p ≤ 0.001.
Cells expressing WT L-selectin-GFP/RFP were treated for 30 min with 10 μM TAPI-0 and subsequently perfused over TNF-activated HUVEC monolayers for 15 min prior to fixation and analysis for FRET by FLIM (see Materials and Methods for more detail). […] (B) Images representative of three independent experiments, where at least 45 cells of each group were analyzed at two optical sections–non-transmigrated uropods (Top) and transmigrated pseudopods (Base). GFP fluorescence channel and lifetime images are provided for each cell line. The lifetime of fluorescence is expressed in a pseudocolour scale from red (low lifetime with a very high probability of interaction) to blue (high lifetime with a very low probability of interaction). […]
FLIM measurement of FRET was performed with a multiphoton microscope system as described previously ([8], [23]). […] Fluorescence lifetime imaging capability was provided by time-correlated, single-photon counting electronics (SPC 700; Becker & Hickl). […] Data were analyzed as previously described ([65]). The FRET efficiency is related to the molecular separation of donor and acceptor and the fluorescence lifetime of the interacting fraction by: […]
where ηFRET is the FRET efficiency, R0 is the Förster radius, r is the molecular separation, τFRET is the lifetime of the interacting fraction and τd is the lifetime of the donor in the absence of an acceptor. The donor- only control is used as the reference against which all of other lifetimes are calculated in each experiment. τFRET and τd can also be taken to be the lifetime of the interacting fraction and non-interacting fraction, respectively. […]

[2] = tested on: THP-1 cells over TNF-α-activated HUVEC; assay: Pseudopod protrusion scoring in TEM under flow; assay type: cell-based, human; conditions: for cells with 2 protrusions / cells with 0 protrusions: 15 min time point, mean of 3 fields of view per flow experiment, three occasions, at least 180 cells per group, % printed; for cells with 2 protrusions: significance ** S367A p ≤ 0.01 (Tukey); for cells with 0 protrusions: significance *** S367A p ≤ 0.001, ** SSAA p ≤ 0.01 (Tukey)
Method: (A) The number of protrusions formed over this period was scored as: zero, one, two, or >2. (B) The percentages of cells bearing these protrusions were scored at specific time points: 6 min (blue bars), 15 min (green bars), or 25 min (red bars). Supplementary Videos 2, 3, 4 provide examples of cells producing a range of protrusions as TEM proceeds. Data represent SEM of 3 fields of view per flow experiment, conducted on three separate occasions, and at least 180 cells analyzed per group. Values of the vertical lines indicate the differences in protrusion number (specifically “zero” and “two”) corresponding to each of the cell lines, for which statistical significance is shown in Table 1.
All flow experiments were performed using a 35 mm diameter Glycotech parallel plate flow chamber. Perfusion experiments were performed at 1.5 dyn/cm^2 using a Harvard Apparatus 2000 PHD syringe pump. Perfusion media consisted of: RPMI supplemented with L-glutamine, 10% FCS, 1% penicillin/streptomycin, 50 μM β-mercaptoethanol, and 25 mM HEPES. Human Umbilical Vein Endothelial Cells (HUVEC–Lonza) were seeded onto 35 mm diameter glass coverslips (no. 1 thickness; VWR) that were pre-coated with 10 μg/mL fibronectin (37°C for at least 1 h). Before each perfusion assay, HUVEC were stimulated overnight (16 h) with 10 ng/mL carrier-free recombinant human TNF-α (R&D Systems). Each perfusion assay was performed by injecting a bolus of cells for 6 min, followed by just perfusion media (without cells) for the […]. THP-1 cells were perfused at a density of 0.5 ×10^6 cells per mL. THP-1 cells treated with 10 μM TAPI-0 required a preincubation time of 10 min at 37°C before perfusion over TNF-α-activated HUVEC. Note that 10 μM TAPI-0 was also supplemented in the perfusate. Stills were acquired once every 10 seconds using 10 × objective lens.

Molecule	subcellular distribution of L-selectin clustering during TEM (FLIM/FRET) [1]	cells with 2 protrusions [2] [%]	cells with 0 protrusions [2]	protrusive activity profile in TEM (in words) ([2]; 6, 15 and 25 min of flow over TNF-α-activated HUVEC)
B1	clustered exclusively within transmigrated pseudopods	36.2	7.9%	
B2	phenocopied the subcellular distribution of WT L-selectin	24.9	22.4^** %	phenocopied more the S367A than the S364A cell line
